{"source": "the RNAGym collection of RNA variant scans (doi:10.7554/elife.80360)", "parents": {"B1": {"name": "HDV Ribozyme (parent)", "chain": "GGCCGGCAUGGUCCCAGCCUCCUCGCUGGCGCCGGCUGGGCAACAUUCCGAGGGGACCGUCCCCUCGGUAAUGGCGAAUGGGACCCA"}}}
{"variants_of": "B1", "test": "self-cleavage, relative activity (ratio to wild type); higher = more cleavage; co-transcriptional"}
{"variant": "G59C G68U", "self-cleavage": 1.07}
{"variant": "G55U G59C", "self-cleavage": 1.02}
{"variant": "A56U G67C", "self-cleavage": 0.904}
{"variant": "C57A C66U", "self-cleavage": 1.18}
{"variant": "A56C C66A", "self-cleavage": 1.21}
{"variant": "C58G U65A", "self-cleavage": 0.944}
{"variant": "A56G A78C", "self-cleavage": 0.203}
{"variant": "A56G A78U", "self-cleavage": 0.181}
{"variant": "A56U C61A", "self-cleavage": 0.943}
{"variant": "A56U C61G", "self-cleavage": 0.997}
{"variant": "C58G G81A", "self-cleavage": 0.243}
{"variant": "G59C G82A", "self-cleavage": 0.32}
{"variant": "C57A U79A", "self-cleavage": 0.806}
{"variant": "C58G G73C", "self-cleavage": 0.582}
{"variant": "C57U G76U", "self-cleavage": 0.906}
{"variant": "C57U G76A", "self-cleavage": 1.1}
{"variant": "C57U G76C", "self-cleavage": 0.902}
{"variant": "G59A G73C", "self-cleavage": 0.394}
{"variant": "G59A G73A", "self-cleavage": 0.665}
{"variant": "G55U A70C", "self-cleavage": 0.997}
{"variant": "G55U A70G", "self-cleavage": 0.867}
{"variant": "C57U A77G", "self-cleavage": 0.941}
{"variant": "C57U A77U", "self-cleavage": 0.648}
{"variant": "C57A G74C", "self-cleavage": 0.108}
{"variant": "C58U U60C", "self-cleavage": 1.19}
{"variant": "C58U U60A", "self-cleavage": 0.845}
{"variant": "C57U A83C", "self-cleavage": 0.665}
{"variant": "G55U C64A", "self-cleavage": 0.94}
{"variant": "C57U C64G", "self-cleavage": 0.946}
{"variant": "C57U C64A", "self-cleavage": 0.901}
{"variant": "U60A A83C", "self-cleavage": 0.554}
{"variant": "U60A A83G", "self-cleavage": 1.04}
{"variant": "U60A A83U", "self-cleavage": 0.356}
{"variant": "G55C G82C", "self-cleavage": 0.277}
{"variant": "G55C G82U", "self-cleavage": 0.277}
{"variant": "G59C A77U", "self-cleavage": 0.534}
{"variant": "G59C A77G", "self-cleavage": 1.13}
{"variant": "G59A C64A", "self-cleavage": 0.862}
{"variant": "C57A U60C", "self-cleavage": 1.01}
{"variant": "C57A U60A", "self-cleavage": 0.898}
{"variant": "C58A C62A", "self-cleavage": 1.26}
{"variant": "G59U G80C", "self-cleavage": 0.141}
{"variant": "G55C C62G", "self-cleavage": 1.06}
{"variant": "A56U G59U", "self-cleavage": 1.08}
{"variant": "A56G G59C", "self-cleavage": 1.3}
{"variant": "C58A G68C", "self-cleavage": 1.03}
{"variant": "C57G G67U", "self-cleavage": 0.8}
{"variant": "C57G G67C", "self-cleavage": 0.923}
{"variant": "G59C C64U", "self-cleavage": 1.14}
{"variant": "C57U A70C", "self-cleavage": 0.855}
{"variant": "G59A C61A", "self-cleavage": 1.02}
{"variant": "G59A C66A", "self-cleavage": 0.867}
{"variant": "G59U G67U", "self-cleavage": 1.17}
{"variant": "G55C C85U", "self-cleavage": 0.923}
{"variant": "G55C C85A", "self-cleavage": 0.752}
{"variant": "G55U A71C", "self-cleavage": 0.725}
{"variant": "C57A C62G", "self-cleavage": 0.85}
{"variant": "C57A C62U", "self-cleavage": 1.06}
{"variant": "G59A G67U", "self-cleavage": 0.918}
{"variant": "G59C G76U", "self-cleavage": 0.891}
{"variant": "C58G G76U", "self-cleavage": 1.11}
{"variant": "C57U G80U", "self-cleavage": 0.147}
{"variant": "C57A A71G", "self-cleavage": 0.98}
{"variant": "C58U C64U", "self-cleavage": 0.987}
{"variant": "A56U C84G", "self-cleavage": 0.697}
{"variant": "A56U C84A", "self-cleavage": 0.895}
{"variant": "C58A G80U", "self-cleavage": 0.21}
{"variant": "G59U A78G", "self-cleavage": 0.904}
{"variant": "G55C G73U", "self-cleavage": 0.277}
{"variant": "G55U C84A", "self-cleavage": 0.886}
{"variant": "G55C G59C", "self-cleavage": 0.867}
{"variant": "C58A C63G", "self-cleavage": 0.932}
{"variant": "C58A C63A", "self-cleavage": 1.04}
{"variant": "C57U C84G", "self-cleavage": 0.673}
{"variant": "G59C G74U", "self-cleavage": 0.531}
{"variant": "C57U G67C", "self-cleavage": 1.11}
{"variant": "A56G G67U", "self-cleavage": 0.997}
{"variant": "A56G C61G", "self-cleavage": 1.12}
{"variant": "A56G C61A", "self-cleavage": 0.849}
{"variant": "G55U G81C", "self-cleavage": 0.106}
{"variant": "G55U G81U", "self-cleavage": 0.272}
{"variant": "A56C G67A", "self-cleavage": 1.05}
{"variant": "C58A A71G", "self-cleavage": 0.897}
{"variant": "C58G U72G", "self-cleavage": 0.447}
{"variant": "C58G U72C", "self-cleavage": 0.369}
{"variant": "G55U A87G", "self-cleavage": 0.984}
{"variant": "G55U A87C", "self-cleavage": 1.01}
{"variant": "A56G G74U", "self-cleavage": 0.564}
{"variant": "C58U A87G", "self-cleavage": 0.876}
{"variant": "A56G G76U", "self-cleavage": 1.22}
{"variant": "C58G C84A", "self-cleavage": 0.817}
{"variant": "C58G C84G", "self-cleavage": 0.554}
{"variant": "C57A U72A", "self-cleavage": 0.674}
{"variant": "A56G G82C", "self-cleavage": 0.193}
{"variant": "G59C G81A", "self-cleavage": 0.69}
{"variant": "A56C C61A", "self-cleavage": 1.13}
{"variant": "G59U C61A", "self-cleavage": 0.968}
{"variant": "G59U C61G", "self-cleavage": 1.2}
{"variant": "G59A U65A", "self-cleavage": 0.933}
{"variant": "A56U A77C", "self-cleavage": 0.341}
{"variant": "G55C C61G", "self-cleavage": 0.959}
{"variant": "C58G", "self-cleavage": 0.964}
{"variant": "C58A", "self-cleavage": 1.02}
{"variant": "C58U", "self-cleavage": 1.04}
{"variant": "C58A U79G", "self-cleavage": 0.772}
{"variant": "C58U U69A", "self-cleavage": 0.89}
{"variant": "C57U C75G", "self-cleavage": 0.0369}
{"variant": "C57U C75A", "self-cleavage": 0.095}
{"variant": "G59C G80A", "self-cleavage": 0.409}
{"variant": "C58A C66U", "self-cleavage": 0.917}
{"variant": "G59A U79G", "self-cleavage": 0.906}
{"variant": "C57A G67U", "self-cleavage": 1.06}
{"variant": "G55U U60G", "self-cleavage": 1.12}
{"variant": "G55U U60C", "self-cleavage": 1.11}
{"variant": "C58G C86G", "self-cleavage": 0.969}
{"variant": "C58U A77C", "self-cleavage": 0.489}
{"variant": "C58A U65A", "self-cleavage": 0.9}
{"variant": "G59C C85U", "self-cleavage": 1.14}
{"variant": "G59C U60A", "self-cleavage": 1.09}
{"variant": "G55C U60G", "self-cleavage": 0.898}
{"variant": "G55C U60A", "self-cleavage": 1.05}
{"variant": "U60A A87U", "self-cleavage": 0.985}
{"variant": "G59C G67C", "self-cleavage": 0.929}
{"variant": "G59U C66A", "self-cleavage": 0.904}
{"variant": "U60A", "self-cleavage": 1}
{"variant": "A56G G68C", "self-cleavage": 1.01}
{"variant": "A56G G68U", "self-cleavage": 1.18}
{"variant": "C58G A77G", "self-cleavage": 0.831}
{"variant": "G55C G80U", "self-cleavage": 0.216}
{"variant": "C58A C64U", "self-cleavage": 1.15}
{"variant": "C58A C64G", "self-cleavage": 1.06}
{"variant": "C58A G82U", "self-cleavage": 0.376}
{"variant": "C58A G82C", "self-cleavage": 0.17}
{"variant": "G59U C63A", "self-cleavage": 0.935}
{"variant": "C57U U72C", "self-cleavage": 0.566}
{"variant": "C57U U72A", "self-cleavage": 0.657}
{"variant": "C58A C85U", "self-cleavage": 0.869}
{"variant": "G59U A71U", "self-cleavage": 0.862}
{"variant": "A56G A70C", "self-cleavage": 0.935}
{"variant": "A56G A70G", "self-cleavage": 1.14}
{"variant": "G55U C58G", "self-cleavage": 1.04}
{"variant": "C58U G68A", "self-cleavage": 0.855}
{"variant": "C57G G82A", "self-cleavage": 0.302}
{"variant": "C58U G67C", "self-cleavage": 1.07}
{"variant": "A56G G81U", "self-cleavage": 0.332}
{"variant": "A56C A83G", "self-cleavage": 1.01}
{"variant": "G55U G73A", "self-cleavage": 0.533}
{"variant": "A56U C85U", "self-cleavage": 1.12}
{"variant": "C57G A77C", "self-cleavage": 0.237}
{"variant": "C58G G68U", "self-cleavage": 0.959}
{"variant": "C58G C63A", "self-cleavage": 0.813}
{"variant": "A56U C62G", "self-cleavage": 0.601}
{"variant": "G59C A87U", "self-cleavage": 0.981}
{"variant": "A56U A78C", "self-cleavage": 0.272}
{"variant": "A56U A78U", "self-cleavage": 0.0573}
{"variant": "G59A U60A", "self-cleavage": 0.979}
{"variant": "G59A G74A", "self-cleavage": 0.431}
{"variant": "G59A C86A", "self-cleavage": 0.842}
{"variant": "C57G G81C", "self-cleavage": 0.177}
{"variant": "G59C C63A", "self-cleavage": 1.17}
{"variant": "G59C C66A", "self-cleavage": 0.914}
{"variant": "A56G C66G", "self-cleavage": 1.01}
{"variant": "C57A C85U", "self-cleavage": 1.05}
{"variant": "C57A C75G", "self-cleavage": 0.0978}
{"variant": "A56C C86A", "self-cleavage": 0.87}
{"variant": "A56C C86G", "self-cleavage": 0.804}
{"variant": "A56G C86A", "self-cleavage": 0.718}
